Biological target: human Hsp60 (human, UniProt P10809 27-573, biotin (biotinylated Hsp60, site not stated))
Experiment: cell-based or functional assay

Sequence of human Hsp60 (P10809 27-573): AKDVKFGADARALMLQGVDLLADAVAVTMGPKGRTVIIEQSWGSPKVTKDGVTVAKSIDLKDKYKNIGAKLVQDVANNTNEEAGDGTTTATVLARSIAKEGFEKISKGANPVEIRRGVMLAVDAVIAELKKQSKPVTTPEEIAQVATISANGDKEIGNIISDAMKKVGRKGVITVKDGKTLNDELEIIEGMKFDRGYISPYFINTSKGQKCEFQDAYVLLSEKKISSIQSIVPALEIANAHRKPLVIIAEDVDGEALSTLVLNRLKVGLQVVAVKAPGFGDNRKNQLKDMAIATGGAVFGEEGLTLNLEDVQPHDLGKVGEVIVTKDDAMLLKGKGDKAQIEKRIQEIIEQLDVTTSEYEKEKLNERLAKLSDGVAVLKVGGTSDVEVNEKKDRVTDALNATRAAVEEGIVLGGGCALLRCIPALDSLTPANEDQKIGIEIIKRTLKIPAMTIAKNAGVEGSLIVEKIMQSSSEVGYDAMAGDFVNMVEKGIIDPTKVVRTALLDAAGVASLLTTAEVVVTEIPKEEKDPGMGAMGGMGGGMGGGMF

B1: Listeria adhesion protein (LAP) of L. monocytogenes expressed on recombinant Lactobacillus paracasei (Lbp^LAP) (natural protein)
chain: MAIKENAAQEVLEVQKVIDRLADNGQKALKAFESYNQEQVDNIVHAMALAGLDQHMPLAKLAVEETGRGLYEDKCIKNIFATEYIWNNIKNNKTVGVINEDLQTGVIEIAEPVGVVAGVTPVTNPTSTTLFKAIIAIKTRNPIIFAFHPSAQRCSSAAAKVVYDAAIAAGAPEHCIQWVEKPSLEATKQLMNHDKVALVLATGGAGMVKSAYSTGKPALGVGPGNVPAYIDKTAKIKRSVNDIILSKSFDQGMICASEQAVIVDKEVAKEVKAEMEANNCYFVKGAEFKKLESYVINPEKGTLNPDVVGKSPAWIANQAGFKVPEDTKILVAEIKGVGDKYPLSHEKLSPVLAFIEAANQAEAFDRCEEMLVYGGLGHSAVIHSTDKEVQKAFGIRMKACRIIVNAPSAQGGIGDIYNGFIPSLTLGCGSYGKNSVSQNVSATNLLNVKRIADRRNNMQWFKLPPKIFFEKYSTQYLQKMEGVERVFIVTDPGMVQFKYVDVVIEHLKKRGNDVSYQVFADVEPDPSDVTVYKGAELMKDFKPDTIIALGGGSAMDAAKGMWLFYEHPEASFFGLKQKFLDIRKRTFKYPKLGGKAKFVAIPTTSGTGSEVTPFAVITDKENNIKYPLADYELTPDVAIVDAQYVTTVPAHITADTGMDVLTHAIESYVSVMASDYTRGLSIRAIELVFENLRESVLTGDPDAREKMHNASALAGMAFANAFLGINHSLAHKIGPEFHIPHGRANAILMPHVIRYNALKPKKHALFPRYESFRADEDYARISRIIGFPAATTEEGVKSLVDEIIKLGKDVGIDMSLKGQNVAKKDLDAVVDTLADRAFMDQCTTANPKQPLVSELKEIYLEAYKGV
  transepithelial translocation of Lbp^LAP cells through Caco-2 monolayers (transwell, 2 h), against Lbp^WT: 5.1 fold

Reference: article PMC3250429, “Recombinant Probiotic Expressing Listeria Adhesion Protein Attenuates Listeria monocytogenes Virulence In Vitro” (PLoS ONE, 2012)
